The values below come from PMC2114230.

For experiment [1], the target named is microtubules of rat brain tubulin (rat) (UniProt P68370). Description: co-sedimentation.
In experiment [2] the target is actin filaments of rabbit skeletal muscle actin (rabbit) (UniProt P68135). Description: co-sedimentation.

Turning to “axolinin (260-kD protein) of squid giant axon (natural protein)”, the percent of total axolinin sedimented in experiment [1] was 70%. In turn, “255-kD protein of squid giant axon (natural protein)” showed a percent of total 255-kD protein sedimented in experiment [2] of 62%.
